Reference: the supplement of paper PMC7125110
± gives the standard error. Variants at the floor of the assay were thinned out.

B1: glmS ribozyme (parent)
chain: AUAAAAGCGCCAGAACUACAGAAAUGUAGUUGACGAGGAGGAGGUUUAUCGAAUUUUCGGCGGAUGCCUCCAAA

Experiments:
Details in all cases: with glucosamine-6-phosphate
[1] = variants of: B1; assay: self-cleavage kobs at 160 uM GlcN6P; higher = faster cleavage; RNA array
Procedure, shortened: (§1)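 Barcoded ribozyme variants on sequenced MiSeq chips were transcribed in situ by E. coli RNA polymerase and followed at 37 °C through a hybridised Cy3 probe. Glucosamine-6-phosphate at 40 μM to 10 mM in HEPES/KCl/Mg(OAc)2 buffer was flowed in, and tiles were imaged over ~14 h. Signals were normalised to baseline and to non-cleaving reference variants, and per-tile medians were fit to one- or two-exponential decays to give kobs. Weighted Michaelis–Menten fits across concentrations gave kcat and KM.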

[2] = variants of: B1; assay: self-cleavage kobs at 640 uM GlcN6P; higher = faster cleavage; RNA array
Procedure, shortened: as §1

[3] = variants of: B1; assay: self-cleavage kobs at 2500 uM GlcN6P; higher = faster cleavage; RNA array
Procedure, shortened: as §1

[4] = variants of: B1; assay: self-cleavage kobs at 10000 uM GlcN6P; higher = faster cleavage; RNA array
Procedure, shortened: as §1

U57C G62C
self-cleavage kobs at 160 uM GlcN6P [1]: < 1e-05 s⁻¹ | self-cleavage kobs at 640 uM GlcN6P [2]: < 1e-05 s⁻¹ | self-cleavage kobs at 2500 uM GlcN6P [3]: < 1e-05 s⁻¹ | self-cleavage kobs at 10000 uM GlcN6P [4]: < 1e-05 s⁻¹

A48G C50A C61G C67A C68U
self-cleavage kobs at 160 uM GlcN6P [1]: 8.22e-05 ± 2.2e-05 s⁻¹ | self-cleavage kobs at 640 uM GlcN6P [2]: 8.1e-05 ± 3.2e-05 s⁻¹ | self-cleavage kobs at 2500 uM GlcN6P [3]: 9.85e-05 ± 2.5e-05 s⁻¹

G37C G60U C70U
self-cleavage kobs at 160 uM GlcN6P [1]: < 1e-05 s⁻¹

G43U G66U C67U
self-cleavage kobs at 160 uM GlcN6P [1]: < 1e-05 s⁻¹

G38C G44A
self-cleavage kobs at 160 uM GlcN6P [1]: < 1e-05 s⁻¹ | self-cleavage kobs at 640 uM GlcN6P [2]: < 1e-05 s⁻¹ | self-cleavage kobs at 10000 uM GlcN6P [4]: < 1e-05 s⁻¹

G37A U49A C67G
self-cleavage kobs at 160 uM GlcN6P [1]: < 1e-05 s⁻¹ | self-cleavage kobs at 2500 uM GlcN6P [3]: < 1e-05 s⁻¹

A6C C8G U54C
self-cleavage kobs at 640 uM GlcN6P [2]: < 1e-05 s⁻¹

U55G U56C
self-cleavage kobs at 160 uM GlcN6P [1]: 0.000157 ± 3.8e-05 s⁻¹ | self-cleavage kobs at 640 uM GlcN6P [2]: 0.000938 ± 0.00021 s⁻¹ | self-cleavage kobs at 2500 uM GlcN6P [3]: 0.00118 ± 0.00028 s⁻¹ | self-cleavage kobs at 10000 uM GlcN6P [4]: 0.00614 ± 0.0016 s⁻¹

G38U G40C G41C
self-cleavage kobs at 160 uM GlcN6P [1]: < 1e-05 s⁻¹ | self-cleavage kobs at 640 uM GlcN6P [2]: < 1e-05 s⁻¹ | self-cleavage kobs at 2500 uM GlcN6P [3]: < 1e-05 s⁻¹

G38C G41A G51U
self-cleavage kobs at 160 uM GlcN6P [1]: < 1e-05 s⁻¹ | self-cleavage kobs at 2500 uM GlcN6P [3]: < 1e-05 s⁻¹

U47A U65A
self-cleavage kobs at 160 uM GlcN6P [1]: 0.000347 ± 7.5e-05 s⁻¹ | self-cleavage kobs at 640 uM GlcN6P [2]: 0.00132 ± 0.00027 s⁻¹ | self-cleavage kobs at 2500 uM GlcN6P [3]: 0.00331 ± 0.00064 s⁻¹

C50G U56A C58G
self-cleavage kobs at 160 uM GlcN6P [1]: 9.66e-05 ± 4.4e-05 s⁻¹ | self-cleavage kobs at 640 uM GlcN6P [2]: 0.00041 ± 0.00014 s⁻¹ | self-cleavage kobs at 2500 uM GlcN6P [3]: 6.12e-05 ± 2.4e-05 s⁻¹

G38A A53U A64U
self-cleavage kobs at 160 uM GlcN6P [1]: < 1e-05 s⁻¹

C61G U65A
self-cleavage kobs at 160 uM GlcN6P [1]: < 1e-05 s⁻¹ | self-cleavage kobs at 640 uM GlcN6P [2]: < 1e-05 s⁻¹ | self-cleavage kobs at 2500 uM GlcN6P [3]: < 1e-05 s⁻¹ | self-cleavage kobs at 10000 uM GlcN6P [4]: < 1e-05 s⁻¹

U47G C50U G63C
self-cleavage kobs at 160 uM GlcN6P [1]: < 1e-05 s⁻¹ | self-cleavage kobs at 640 uM GlcN6P [2]: < 1e-05 s⁻¹

A39C G63C
self-cleavage kobs at 160 uM GlcN6P [1]: < 1e-05 s⁻¹ | self-cleavage kobs at 640 uM GlcN6P [2]: < 1e-05 s⁻¹ | self-cleavage kobs at 2500 uM GlcN6P [3]: < 1e-05 s⁻¹ | self-cleavage kobs at 10000 uM GlcN6P [4]: < 1e-05 s⁻¹

G41A C50A
self-cleavage kobs at 160 uM GlcN6P [1]: < 1e-05 s⁻¹ | self-cleavage kobs at 640 uM GlcN6P [2]: < 1e-05 s⁻¹ | self-cleavage kobs at 2500 uM GlcN6P [3]: < 1e-05 s⁻¹ | self-cleavage kobs at 10000 uM GlcN6P [4]: < 1e-05 s⁻¹

U55G G63C
self-cleavage kobs at 160 uM GlcN6P [1]: < 1e-05 s⁻¹ | self-cleavage kobs at 2500 uM GlcN6P [3]: < 1e-05 s⁻¹

U55C G59C
self-cleavage kobs at 160 uM GlcN6P [1]: < 1e-05 s⁻¹ | self-cleavage kobs at 640 uM GlcN6P [2]: < 1e-05 s⁻¹

A48U G60U C68U
self-cleavage kobs at 160 uM GlcN6P [1]: < 1e-05 s⁻¹ | self-cleavage kobs at 2500 uM GlcN6P [3]: < 1e-05 s⁻¹

G37U A48C C68U
self-cleavage kobs at 160 uM GlcN6P [1]: < 1e-05 s⁻¹ | self-cleavage kobs at 640 uM GlcN6P [2]: < 1e-05 s⁻¹

G38U G44U C50A A64U
self-cleavage kobs at 160 uM GlcN6P [1]: < 1e-05 s⁻¹

G41A A53G
self-cleavage kobs at 160 uM GlcN6P [1]: 0.000343 ± 7e-05 s⁻¹ | self-cleavage kobs at 640 uM GlcN6P [2]: 0.000842 ± 0.00015 s⁻¹ | self-cleavage kobs at 2500 uM GlcN6P [3]: 0.00129 ± 0.00028 s⁻¹ | self-cleavage kobs at 10000 uM GlcN6P [4]: 0.00427 ± 0.00084 s⁻¹

G37C U47A
self-cleavage kobs at 160 uM GlcN6P [1]: < 1e-05 s⁻¹ | self-cleavage kobs at 10000 uM GlcN6P [4]: 4.38e-05 ± 1.1e-05 s⁻¹

G43U G62U C67U
self-cleavage kobs at 160 uM GlcN6P [1]: < 1e-05 s⁻¹ | self-cleavage kobs at 640 uM GlcN6P [2]: < 1e-05 s⁻¹
